The values below come from US7244577.

The assay has as its target low-density lipoprotein (LDL) particles, 125I-labelled. Kind of assay: cell-based or functional assay.

In turn, “human LDL-receptor related protein-5 (LRP5), isoform 1 (from UniProt O75197 32-1615)” displayed an uptake of 125I-LDL by FH fibroblasts infected with LRP5 adenovirus of 60 % increase. “LDL-receptor (from UniProt P01130 22-860) (receptor; the values are: fold increase in LDL uptake)” displayed an uptake of 125I-LDL by FH fibroblasts infected with LDL-receptor adenovirus of 20 fold.
